Measurements reported in patent EP4538285A1 (Chineo Medical Technology Co., Ltd., dated 2025).

B1: Toripalimab (antibody, V domains shown)
VH: QGQLVQSGAEVKKPGASVKVSCKASGYTFTDYEMHWVRQAPIHGLEWIGVIESETGGTAYNQKFKGRVTITADKSTSTAYMELSSLRSEDTAVYYCAREGITTVATTYYWYFDVWGQGTTVTVSS
VL: DVVMTQSPLSLPVTLGQPASISCRSSQSIVHSNGNTYLEWYLQKPGQSPQLLIYKVSNRFSGVPDRFSGSGSGTDFTLKISRVEAEDVGVYYCFQGSHVPLTFGQGTKLEIKR

Key:
[1] = biological target: T1, Seq No.1-RFc (wild-type PD-1 fused to rabbit IgG Fc) (human; rabbit, UniProt Q15116 21-155); assay: SPR, Biacore T200; PD1-RFc mobile phase, antibody stationary phase
T1 construct: also called PD1-RFc; not shown: rabbit IgG Fc (RFc) of vector pcDNA3.4-RFc

Tilelizumab = biological target: T2, Tilelizumab; assay: as above
T2 construct: Biotin-labelled in flow cytometry; also called Tevimbra; Tislelizumab

Toripalimab = biological target: B1; assay: SPR, Biacore T200

| Kd [1] [nM] | koff [1] [s⁻¹] | kon [1] [M⁻¹ s⁻¹] | Kd (Tilelizumab) [nM] | koff (Tilelizumab) [s⁻¹] | kon (Tilelizumab) [M⁻¹ s⁻¹] | Kd (Toripalimab) [nM] | Binder |
| --- | --- | --- | --- | --- | --- | --- | --- |
| 0.229 | 0.000389 | 1.7e+06 | – | – | – | – | Camrelizumab (antibody, V domains shown) VH: EVQLVESGGGLVQPGGSLRLSCAASGFTFSSYMMSWVRQAPGKGLEWVATISGGGANTYYPDSVKGRFTISRDNAKNSLYLQMNSLRAEDTAVYYCARQLYYFDYWGQGTTVTVSS VL: DIQMTQSPSSLSASVGDRVTITCLASQTIGTWLTWYQQKPGKAPKLLIYTATSLADGVPSRFSGSGSGTDFTLTISSLQPEDFATYYCQQVYSIPWTFGGGTKVEIK |
| – | – | – | 0.567 | 0.0003 | 530000 | – | Seq No.5-RFc (PD-1 variant SEQ ID NO: 5 fused to rabbit IgG Fc) (Fc fusion, Signal peptide 1-20 left out; also called variant 4; not shown: rabbit IgG Fc (RFc) of vector pcDNA3.4-RFc) PGWFLDSPDRPWNPPTFSPALLVVTEGDNATFTCSFSNTSESFVLNWYRMSPSNQTDKLAAFPEDFRNCTQDCRFRVTQLPNGRDFHMSVVRARRNDSGTYLCGAISLSTPVWIKESLRAELRVTERRAEVPTAH |
| – | – | – | 1.78 | 0.00105 | 588000 | – | Seq No.3-RFc (PD-1 variant SEQ ID NO: 3 fused to rabbit IgG Fc) (Fc fusion, Signal peptide 1-20 left out; also called variant 2; not shown: rabbit IgG Fc (RFc) of vector pcDNA3.4-RFc) PGWFLDSPDRPWNPPTFSPALLVVTEGDNATFTCSFSNTSESFVLNWYRMSPSNQTDKLAAFPFLFNLPGQDCRFRVTQLPNGRDFHMSVVRARRNDSGTYLCGAISLSTPVWIKESLRAELRVTERRAEVPTAH |
| – | – | – | 2.94 | 0.00203 | 691000 | – | Seq No.4-RFc (PD-1 variant SEQ ID NO: 4 fused to rabbit IgG Fc) (Fc fusion, Signal peptide 1-20 left out; also called variant 3; not shown: rabbit IgG Fc (RFc) of vector pcDNA3.4-RFc) PGWFLDSPDRPWNPPTFSPALLVVTEGDNATFTCSFSNTSESFVLNWYRMSPSNQTDKLAAFPWMFCFPGQDCRFRVTQLPNGRDFHMSVVRARRNDSGTYLCGAISLSTPVWIKESLRAELRVTERRAEVPTAH |
| – | – | – | 0.315 | 0.000836 | 2.66e+06 | – | Seq No.6-RFc (PD-1 variant SEQ ID NO: 6 fused to rabbit IgG Fc) (Fc fusion, Signal peptide 1-20 left out; also called variant 5; 56#-16; not shown: rabbit IgG Fc (RFc) of vector pcDNA3.4-RFc) PGWFLDSPDRPWNPPTFSPALLVVTEGDNATFTCSFSNTSESFVLNWYRMSPSNQTDKLAAFPEDFFTVSQDCRFRVTQLPNGRDFHMSVVRARRNDSGTYLCGAISLSTPVWIKESLRAELRVTERRAEVPTAH |
| 0.178 | 0.00115 | 6.47e+06 | – | – | – | – | B1 |
| 0.00141 | 5.11e-06 | 3.62e+06 | – | – | – | – | Sintilimab (antibody, V domains shown) VH: QVQLVQSGAEVKKPGSSVKVSCKASGGTFSSYAISWVRQAPGQGLEWMGLIIPMFDTAGYAQKFQGRVAITVDESTSTAYMELSSLRSEDTAVYYCARAEHSSTGTFDYWGQGTLVTVSS VL: DIQMTQSPSSVSASVGDRVTITCRASQGISSWLAWYQQKPGKAPKLLISAASSLQSGVPSRFSGSGSGTDFTLTISSLQPEDFATYYCQQANHLPFTFGGGTKVEIK |
| – | – | – | 0.085 | 0.000174 | 2.05e+06 | 0.395 | Seq No.2-RFc (PD-1 variant SEQ ID NO: 2 fused to rabbit IgG Fc) (Fc fusion, signal peptide 1-20 left out; also called variant 1; not shown: rabbit IgG Fc (RFc) of vector pcDNA3.4-RFc) PGWFLDSPDRPWNPPTFSPALLVVTEGDNATFTCSFSNTSESFVLNWYRMSPSNQTDKLAAFPEDRSQPGQDCRFRVTQLPNGRDFHMSVVRARRNDSGTYLCGAISLSTPVWIKESLRAELRVTERRAEVPTAH |
| – | – | – | 0.0492 | 0.000109 | 2.21e+06 | – | Seq No.7-RFc (PD-1 variant SEQ ID NO: 7 fused to rabbit IgG Fc) (Fc fusion, Signal peptide 1-20 left out; also called variant 6; not shown: rabbit IgG Fc (RFc) of vector pcDNA3.4-RFc) PGWFLDSPDRPWNPPTFSPALLVVTEGDNATFTCSFSNTSESFVLNWYRMSPSNQTDKLAAFPEDRINRSQDCRFRVTQLPNGRDFHMSVVRARRNDSGTYLCGAISLSTPVWIKESLRAELRVTERRAEVPTAH |
